The target in assay [1] is recombinant RHOA wild type (human, UniProt P61586 1-193). Put plainly: other fluorescence titration.
In assay [2] the target is recombinant RHOA Y42C (human, UniProt P61586 1-193, Y42C). The assay can be described thus: other fluorescence titration.
recombinant RHOA Y42C, sequence (P61586 whole entry Y42C): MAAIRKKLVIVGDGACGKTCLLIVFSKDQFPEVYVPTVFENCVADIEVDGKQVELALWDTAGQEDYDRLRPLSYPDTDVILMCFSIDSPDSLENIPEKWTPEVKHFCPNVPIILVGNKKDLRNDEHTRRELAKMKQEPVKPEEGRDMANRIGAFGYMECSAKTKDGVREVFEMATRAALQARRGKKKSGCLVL

recombinant RHOA wild type, sequence (P61586 whole entry): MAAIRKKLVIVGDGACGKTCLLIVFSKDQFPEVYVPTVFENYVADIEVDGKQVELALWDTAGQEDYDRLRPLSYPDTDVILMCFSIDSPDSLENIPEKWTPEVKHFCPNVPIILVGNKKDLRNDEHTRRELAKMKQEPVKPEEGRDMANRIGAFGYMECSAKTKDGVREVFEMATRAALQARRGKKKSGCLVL

B1: mDia RHOA-GTP binding domain (RBD) (domain or fragment)
chain: LQDISDEQVLVLFEQMLVDMNLNEEKQQPLREKDIVIKREMVSQYLHTSKAGMNQKESSRSAMMYIQELRSGLRDMHLLSCLESLRVSLNNNPVSWVQTFGAEGLASLLDILKRLHDEKEETSGNYDSRNQHEIIRCLKAFMNNKFGIKTMLETEEGILLLVRAMDPAVPNMMIDAAKLLSALCILPQPEDMNERVLEAMTERAEMDEVERFQPLLDGLKSGTSIALKVGCLQLINALITPAEELDFRVHIRSELMRLGLHQVLQELREIENEDMKVQLCVFDEQGDEDFFDLKGRLDDIRMEMDDFGEVFQIILNTVKDSKAEPHFLSILQHLLLVRNDYEARPQYYKLIEECVSQIVLHKNGTD
In general, Kd refers to the equilibrium constant for the complex coming apart. As for B1, the Kd in assay [1] was 460 ± 60 nM.

B2: Rhotekin RHOA-GTP binding domain (RBD) (domain or fragment, UniProt Q8C6B2 17-98, looked up)
chain: ALEMEFKRGRFRLSFFSESPEDTELQRKLDHEIRMRDGACKLLAACSQREQALEATKSLLVCNSRILSYMGELQRRKEAQVL
On to B2, for which, in assay [1], the Kd was 500 ± 40 nM.

B3: ROCK RHOA-GTP binding domain (RBD) (domain or fragment)
chain: TKDIEILRRENEELTEKMKKAEEEYKLEKEEEISNLKAAFEKNINTERTLKTQAVNKLAEIMNRKDF
As for B3, in assay [1], the dissociation constant Kd is 380 ± 30 nM. The “fold change of binding against RHOA WT” value in assay [2] worked out at 12 fold.

The values above are taken from paper PMC7007383 (Cancer discovery, 2019).
